According to US20170204158A1 (Regeneron, published 2017):

Columns and labels:
[1] = target: T1, monkey IL-33 expressed with C-terminal hexahistidine tag (MfIL-33-6His) (cynomolgus monkey (M. fascicularis)); experiment: SPR (Biacore T-200), 37 C; Fc fusion captured by anti-Fc antibody, MfIL-33-6His injected
T1 construct: also called M. fascicularis IL-33-6His; cynomolgus monkey IL-33
T1 chain: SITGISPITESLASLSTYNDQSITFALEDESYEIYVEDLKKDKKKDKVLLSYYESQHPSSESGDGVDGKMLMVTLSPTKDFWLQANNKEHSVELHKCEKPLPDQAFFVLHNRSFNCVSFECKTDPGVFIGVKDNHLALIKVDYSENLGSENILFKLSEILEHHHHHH
Experimental: (§1) The Biacore sensor surface was first derivatized by amine coupling a polyclonal rabbit anti-mouse antibody (GE, # BR-1008-38) or with a monoclonal mouse anti-human Fc antibody (GE, # BR-1008-39) to capture IL-33 Trap and receptor proteins with a C-terminal mouse IgG2a Fc tag or a C-terminal human IgG1 Fc tag, respectively. Kinetic experiments were carried out in 0.01 M HEPES pH 7.4, 0.15 M NaCl, 3 mM EDTA, and 0.005% v/v Surfactant Tween-20 (HBST running buffer). Different concentrations of human IL-33, mouse IL-33 or MfIL-33-6His prepared in HBST running buffer (ranging from 60 nM to 27.4 pM, 3-fold dilutions, for Trap proteins and ranging from 60 nM to 0.25 nM, 3-fold dilutions, for ST2 receptor proteins) were injected over the captured IL-33 Trap and receptor protein surfaces at a flow rate of 50 μL/minute. Association of different IL-33 proteins to the different capture surfaces was monitored for 7 minutes for Trap proteins or 4 minutes for ST2 receptor proteins and their dissociation in HBST running buffer was monitored for 14 minutes for Trap proteins or 8 minutes for ST2 receptor proteins. Kinetic association (ka) and dissociation (kd) rate constants were determined by fitting the real-time binding sensorgrams to a 1:1 binding model using Scrubber 2.0c curve-fitting software. Binding dissociation equilibrium constants (KD) and dissociative half-lives (t½) were calculated from the kinetic rate constants as: […]

[2] = target: T2, mouse IL-33 (R&D Systems, # 3626-ML-010/CF) (mouse, UniProt Q8BVZ5 109-266); experiment: SPR (Biacore T-200), 25 C; Fc fusion captured by anti-Fc antibody, mouse IL-33 injected
T2 construct: Commercial protein; also called mIL-33; mIL33
T2 sequence (looked up): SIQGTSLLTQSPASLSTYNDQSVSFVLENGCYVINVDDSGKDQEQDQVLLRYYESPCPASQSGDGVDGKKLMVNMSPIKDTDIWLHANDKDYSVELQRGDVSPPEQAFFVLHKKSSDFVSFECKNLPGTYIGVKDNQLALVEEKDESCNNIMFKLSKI
Experimental: as §1

[3] = target: T2, mouse IL-33 (R&D Systems, # …); experiment: SPR (Biacore T-200), 37 C; Fc fusion captured by anti-Fc antibody, mouse IL-33 injected
Experimental: as §1

[4] = target: T3, human IL-33 (R&D Systems, # 3625-IL-010/CF) (human, UniProt O95760 112-270, biotinylated in the blocking ELISA of Example 3 (sites not given)); experiment: competition ELISA; antagonist pre-mixed with 20 pM biotin-hIL-33, binding to plate-coated human ST2-Fc
T3 construct: Commercial protein; also called hIL-33; biot-hIL-33
T3 sequence (looked up): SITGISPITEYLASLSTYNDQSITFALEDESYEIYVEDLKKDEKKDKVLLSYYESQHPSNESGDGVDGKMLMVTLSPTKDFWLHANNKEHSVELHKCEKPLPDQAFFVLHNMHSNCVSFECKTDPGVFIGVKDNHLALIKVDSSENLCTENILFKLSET
Experimental: The ability of exemplary IL-33 antagonists of the invention to block human IL-33 (hIL-33) binding to the human ST2 receptor was measured using a competition sandwich ELISA. A portion of human ST2 protein ecto domain that was expressed with a C-terminal mouse Fc tag (SEQ ID NO:2) was coated at a concentration of 1 μg/mL in PBS buffer on a 96-well microtiter plate overnight at 4° C. […] Biotinylated hIL-33 protein (R&D systems, #3625-IL/CF) (biot-hIL-33) was added to achieve a constant final concentration of 20 pM to serial dilutions of IL-33 antagonists ranging from 0 to 100 nM. The mixture was incubated for 1 hour at room temperature (RT) before transfer to the hST2-hFc coated microtiter plates. After incubation for 1 hour at RT, the wells were then washed, and plate-bound biot-hIL-33 was detected with HRP-conjugated streptavidin (Thermo Scientific, # N200). All samples were developed with a TMB solution (BD biosciences, # 51-2607KC) to produce a colorimetric reaction and then quenched by acidification with 1M sulfuric acid before measuring absorbance at 450 nm on a Victor X5 plate reader (PerkinElmer). Data analysis was performed using a sigmoidal dose-response model within Prism™ software. […] Maximum blocking values represent the ability of the antagonists to block IL-33 binding relative to baseline. The absorbance measured at the constant amount of hIL-33 on the dose curve was defined as 0% blocking and the absorbance with no added IL-33 was defined as 100% blocking. The absorbance values of the wells containing the highest concentration tested for each antagonist were used to determine the maximum blocking percent.

[5] = target: T3, human IL-33 (R&D Systems, # …); experiment: SPR (Biacore T-200), 25 C; Fc fusion captured by anti-Fc antibody, IL-33 injected
Experimental: as §1

60 nM Monkey IL-33 Bound (RU) [1]: 27 RU
Kd [1]: 3.29 pM
koff [1]: 4.79e-05 s⁻¹
kon [1]: 1.45e+07 M⁻¹ s⁻¹
t1/2 [1]: 4.02 h
60 nM Mouse IL-33 Bound (RU) [2]: 22 RU
Kd [2]: 19.2 pM
koff [2]: 8.97e-05 s⁻¹
kon [2]: 4.67e+06 M⁻¹ s⁻¹
t1/2 [2]: 2.15 h
60 nM Mouse IL-33 Bound (RU) [3]: 21 RU
Kd [3]: 93.3 pM
koff [3]: 0.000317 s⁻¹
kon [3]: 3.39e+06 M⁻¹ s⁻¹
t1/2 [3]: 0.6 h
IC50 [4]: 6.34 pM
60 nM Human IL-33 Bound (RU) [5]: 28 RU
Kd [5]: 3.29 pM
koff [5]: 6.32e-05 s⁻¹
kon [5]: 1.92e+07 M⁻¹ s⁻¹
t1/2 [5]: 3.05 h
B1: hST2-hIL1RAcP-mFc (Fc fusion)
chain: KFSKQSWGLENEALIVRCPRQGKPSYTVDWYYSQTNKSIPTQERNRVFASGQLLKFLPAAVADSGIYTCIVRSPTFNRTGYANVTIYKKQSDCNVPDYLMYSTVSGSEKNSKIYCPTIDLYNWTAPLEWFKNCQALQGSRYRAHKSFLVIDNVMTEDAGDYTCKFIHNENGANYSVTATRSFTVKDEQGFSLFPVIGAPAQNEIKEVEIGKNANLTCSACFGKGTQFLAAVLWQLNGTKITDFGEPRIQQEEGQNQSFSNGLACLDMVLRIADVKEEDLLLQYDCLALNLHGLRRHTVRLSRKNPIDHHSSERCDDWGLDTMRQIQVFEDEPARIKCPLFEHFLKFNYSTAHSAGLTLIWYWTRQDRDLEEPINFRLPENRISKEKDVLWFRPTLLNDTGNYTCMLRNTTYCSKVAFPLEVVQKDSCFNSPMKLPVHKLYIEYGIQRITCPNVDGYFPSSVKPTITWYMGCYKIQNFNNVIPEGMNLSFLIALISNNGNYTCVVTYPENGRTFHLTRTLTVKVVGSPKNAVPPVIHSPNDHVVYEKEPGEELLIPCTVYFSFLMDSRNEVWWTIDGKKPDDITIDVTINESISHSRTEDETRTQILSIKKVTSEDLKRSYVCHARSAKGEVAKAAKVKQKVPAPRYTVESGEPRGPTIKPCPPCKCPAPNLLGGPSVFIFPPKIKDVLMISLSPIVTCVVVDVSEDDPDVQISWFVNNVEVHTAQTQTHREDYNSTLRVVSALPIQHQDWMSGKEFKCKVNNKDLPAPIERTISKPKGSVRAPQVYVLPPPEEEMTKKQVTLTCMVTDFMPEDIYVEWTNNGKTELNYKNTEPVLDSDGSYFMYSKLRVEKKNWVERNSYSCSVVHEGLHNHHTTKSFSRTPGK
notes: also called third IL-33 antagonist; human IL-33 Trap
